Assay results reported in US20240002499A1, “ANTI-CLIC1 PROTEIN ANTIBODIES AND THE DIAGNOSTIC AND THERAPEUTIC USES THEREOF” (Universita' Degli Studi di Milano, priority 2020, published 2024).
“Also recorded” adds a separate entry of the source.

Columns and labels:
[1] = system: COLO201; assay: COLO201 spheroids, 3D culture; format: cell-based; settings: treated 24 to 96 hours, area normalized on initial area
Description: To evaluate whether tmCLIC1omab is able to penetrate across tumor spheroids, a 3D culture was performed. After the complete formation of spheroids, treatments were added and the area was measured every 24 hours up to 96 hours. The area at each time point was then normalized on the initial spheroids' area.
Spheroids were formed with hanging-drop method and then plated in rounded 96 plates coated with 5% of agar. After the complete formation of spheroids, treatments were added and the area was measured every 24 hours up to 96 hours. The area at each time point was then normalized on the initial spheroids' area.

[2] = target: T1, tmCLIC1 (Homo sapiens, UniProt O00299); assay: Immunofluorescence on monocytes isolated from peripheral blood; format: cell-based; settings: monocytes of Alzheimer's disease patients and controls, fluorescent secondary antibody
T1 construct: monocytes isolated from the peripheral blood of patients with a diagnosis of Alzheimer's disease and controls; endogenous in cells; host or cells: human peripheral blood monocytes (Alzheimer's disease patients and healthy controls)
Description: For each individual, 8 ml of peripheral blood was collected in BD Vacutainer® CPT™ test tubes with sodium citrate, gently mixed by inversion and centrifuged at room temperature for 20 min. at 1600 rpm to separate three distinct phases: a bottom layer containing red blood cells, an intermediate layer containing mononuclear cells, and a top layer containing plasma. The layer of mononuclear cells was collected together with part of the plasma and transferred to a centrifuge tube. PBS was added until a final volume of […] was reached, and it was gently mixed by inversion and centrifuged for 10 min. at 300 rpm. The resulting pellet underwent two further washes in 5 ml of PBS, and was used for the subsequent experiments.
The pellet of mononuclear cells isolated from the blood was counted and divided into samples containing an equal number of cells (1×10^6 cells/sample). Each sample was resuspended in 90 μl of cold staining solution (0.5% BSA, 2 mM EDTA in PBS) and, after the addition of 10 μl of FcR blocker (Miltenyi Biotec), was incubated in ice for 15 min. 10 μl of primary antibody diluted in staining solution was then added, and the sample was incubated for 1 h in ice. At the end of the incubation period, each sample was washed with 1 ml of cold staining solution and centrifuged at 350 rpm for 5 min. […]

B1: tmCLIC1omab: IgG1 class antibody containing the heavy chain variable region SEQ ID NO:13 and the light chain variable region SEQ ID NO:14 (antibody, listed as Mus musculus, V domains shown)
VH: EVMLVESGGGLVKPGGSLKLSCAASGFAFSNYAMSWIRQIPEKRLEWVATISTGGSSTFYPDSVKGRFTISRDNAKNTLYLQMSSLRSEDTAMYYCTRHAYEAWFAYWGQGTLVTVSA
VL: QIVLTQSPALMSASPGEKVTMTCSASSSVSYMYWYQQRPRSSPKPWIYLTSTLASGVPTRFSGSGSGTSYSLTISSMEAEDAATYYCQQWNSHPLTFGSGTKLEIK
spheroids' area / proliferation of spheroids versus control [1]: significantly smaller compared to the control from 48 h; also recorded: impair proliferation of spheroids significantly after 48 hours
specificity of staining on monocytes [2]: specificity of the antibody for the membrane protein
